# Laboratory results as given in IntAct's records for PubMed 25083872.
# B1: Vesicle-associated membrane protein-associated protein SCS2 (Saccharomyces cerevisiae), P40075 (parent)
# chain: MSAVEISPDVLVYKSPLTEQSTEYASISNNSDQTIAFKVKTTAPKFYCVRPNAAVVAPGETIQVQVIFLGLTEEPAADFKCRDKFLVITLPSPYDLNGKAVADVWSDLEAEFKQQAISKKIKVKYLISPDVHPAQNQNIQENKETVEPVVQDSEPKEVPAVVNEKEVPAEPETQPPVQVKKEEVPPVVQKTVPHENEKQTSNSTPAPQNQIKEAATVPAENESSSMGIFILVALLILVLGWFYR
# partner: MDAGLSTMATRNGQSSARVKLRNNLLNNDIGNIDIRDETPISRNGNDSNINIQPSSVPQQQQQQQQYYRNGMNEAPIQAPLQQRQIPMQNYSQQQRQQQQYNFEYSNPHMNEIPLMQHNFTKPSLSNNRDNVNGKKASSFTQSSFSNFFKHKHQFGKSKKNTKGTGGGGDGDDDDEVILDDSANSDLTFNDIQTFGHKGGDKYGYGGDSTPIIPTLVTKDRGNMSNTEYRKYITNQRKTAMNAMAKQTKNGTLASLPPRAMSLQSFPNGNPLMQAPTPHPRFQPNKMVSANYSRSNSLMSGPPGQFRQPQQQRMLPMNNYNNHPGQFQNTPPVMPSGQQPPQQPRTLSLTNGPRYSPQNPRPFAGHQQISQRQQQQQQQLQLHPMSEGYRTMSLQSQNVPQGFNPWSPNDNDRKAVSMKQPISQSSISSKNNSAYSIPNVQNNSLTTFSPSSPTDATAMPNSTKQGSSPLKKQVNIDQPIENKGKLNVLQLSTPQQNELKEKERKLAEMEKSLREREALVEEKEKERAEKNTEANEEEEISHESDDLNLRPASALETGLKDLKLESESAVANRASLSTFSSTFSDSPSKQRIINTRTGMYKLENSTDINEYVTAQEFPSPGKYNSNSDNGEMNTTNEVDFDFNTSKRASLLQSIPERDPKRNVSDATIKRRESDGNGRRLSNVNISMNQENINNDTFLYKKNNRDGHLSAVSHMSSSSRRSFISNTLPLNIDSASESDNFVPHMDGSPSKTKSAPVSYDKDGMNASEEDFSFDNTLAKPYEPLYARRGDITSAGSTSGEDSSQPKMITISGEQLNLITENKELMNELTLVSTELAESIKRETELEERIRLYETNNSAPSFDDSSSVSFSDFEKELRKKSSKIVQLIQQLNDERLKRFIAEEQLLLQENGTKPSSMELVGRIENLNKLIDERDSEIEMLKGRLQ
# Variants of: B1
# Settings: with ym11_yeast ym11, P39523
row,Variant,effect of a mutation on the interaction
1,MSAVEISPDVLVYKSPLTEQSTEYASISNNSDQTIAFKVKTAAPKFYCVRPNAAVVAPGETIQVQVIFLGLTEEPAADFKCRDKFLVITLPSPYDLNGKAVADVWSDLEAEFKQQAISKKIKVKYLISPDVHPAQNQNIQENKETVEPVVQDSEPKEVPAVVNEKEVPAEPETQPPVQVKKEEVPPVVQKTVPHENEKQTSNSTPAPQNQIKEAATVPAENESSSMGIFILVALLILVLGWFYR [T42A],disrupting interaction strength
